The record followed here is the nanobody polyreactivity screen of Harvey et al. (2022).

The series in a line: yeast display, Sf9 membrane polyspecificity reagent, FACS + sequencing; frameworks hold sequencing errors. The method, boiled down:
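Galactose-induced (36–48 hours) yeast carrying a synthetic nanobody display library were exposed to 10% biotinylated, detergent-solubilized Sf9 membrane reagent at 4 °C for 1 hour. FACS followed streptavidin microbead enrichment, using low and high (top ~1%) gates for expression (anti-HA) and reagent binding (streptavidin). Colony PCR, MiSeq 2 × 250 sequencing and CDR-length filtering followed. Labels for polyreactivity reflect the gate of origin.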
As for “QVQLVESGGGLVQAGGSLRLSCAASGSIFTYYAMGWYRQAPGKERELVADIRWSGGSTYYADSVKGRFTISRDNAKNTVYLQMNSLKPEDTAVYFCNARYYSYWPIYNFDYWGQGTQVTVSS”, the “polyreactivity (PSR sort gate)” value was “low polyreactivity”.

On to “QVQLVESGGGLVQAGGSLRLSCAASGSIFTYYVMGWYRQAPGKERELVAAITRSGGRTYYADSVKGRFTISRDNAKNTVYLQMNSLKPEDTAVYYCAARKYTGSGSRYYYWGQGTQVTVSS”, for which the “polyreactivity (PSR sort gate)” value is given as “high polyreactivity”.

“QVQLVESGGGLVQAGGSLRLSCAASGSIFVAYAMGWYRQAPGKERELVAAITYSAGSTYYADSVKGRFTISRDNAKNTVYLQMNSLKPEDTAVYYCAADTYTYFLASYLYGQYDYWGQGTQVTVSS”: the “polyreactivity (PSR sort gate)” value is recorded as “low polyreactivity”.

In the case of “QVQLVESGGGLVQAGGSLRLSCAASGSIFVDNAMGWYRQAPGKERELVAAITDSGGRTYYADSVKGRFTISRDNAKNTVYLQMNSLKPEDTAVYYCAAGQSGYAGRRPAFGYWGQGTQVTVSS”, the “polyreactivity (PSR sort gate)” value is listed as “low polyreactivity”.

For “QVQLVESGGGLVQAGGSLRLSCAASGSIFVDNAMGWYRQAPGKERELVAVITLRSGSTNYADSVKGRFTISRDNAKNTVYLQMNSLKPEDTAVYYCAADETYHDYQRDTDDDYWGQGTQVTVSS”, the “polyreactivity (PSR sort gate)” value is given as “low polyreactivity”.

Consider “QVQLVESGGGLVQAGGSLRLSCAASGSIFVDNDMGWYRPAPGKERELVAAIRSSGTSTYYADSVKGRFTISRDNAKNTVYLQMNSLKPEDTAVYYCATRYPRRHVYPKPYYYWGQGTQVTVSS”, for which the “polyreactivity (PSR sort gate)” value is “low polyreactivity”.

For “QVQLVESGGGLVQAGGSLRLSCAASGSIFVDYAMGWYRQAPGKERELVAAITSTGSTTYADSVKGRFTISRDNAKNTVYLQMNSLKPEDTAVYYCAASFRWYGTVRYPYEMYYWGQGTQVTVSS”, the “polyreactivity (PSR sort gate)” value is recorded as “low polyreactivity”.

As to “QVQLVESGGGLVQAGGSLRLSCAASGSIFVFYAMGWYRQAPGKERELVATISSAGSTYYADSVKGRFTISRDNAKNTVYLQMNSLKPEDTAVYYCARGYIPSYWWYHSDRGDYWGQGTQVTVSS”, the “polyreactivity (PSR sort gate)” value is given as “low polyreactivity”.

As for “QVQLVESGGGLVQAGGSLRLSCAASGSIFVGNAMGWYIQAPGKERELVAAISRSGGSTYYADSVKGRFTISRDNAKNTVYLQMNSLKPEDTAVYYCAAVRKQGSGFDYWGQGTQVTVSS”, the “polyreactivity (PSR sort gate)” value was “high polyreactivity”.

For “QVQLVESGGGLVQAGGSLRLSCAASGSIFVGNAMGWYRPAPGKERELVAAISSSGGSTYYADSVKGRFTISRDNAKNTVYLQMNSLKPEDTAVYYCAADIFSPAFDYWGQGTQVTVSS”, the “polyreactivity (PSR sort gate)” value was “low polyreactivity”.

Consider “QVQLVESGGGLVQAGGSLRLSCAASGSIFVGNAMGWYRQAPAKERELVDTISWSGGSTYYADSVKGRFTISRDNAKNTVYVQMTSLKPEDTAVYYCAKTPYRRYRYGCYTYRTYDYWGHGTQVTVSS”, for which the “polyreactivity (PSR sort gate)” value is recorded as “low polyreactivity”.

For the sequence “QVQLVESGGGLVQAGGSLRLSCAASGSIFVGNAMGWYRQAPGKERELVAAISSGGSTYYADSVKGRFTISRDNAKNTVYLQMNSLKPEDTAVYYCAAYYVRRYSSRPKDDYWGQGTQVTVSS”, the “polyreactivity (PSR sort gate)” value is recorded as “low polyreactivity”.

Regarding “QVQLVESGGGLVQAGGSLRLSCAASGSIFVGNTMGWYRQAPGKERELVAALTWSGGRTYYADSVKGRFTISRDNEKNTVYLQMHSLKPEDTAVYYCNALANYIRYYYWGQGTQVTVSS”, the “polyreactivity (PSR sort gate)” value is “high polyreactivity”.

With “QVQLVESGGGLVQAGGSLRLSCAASGSIFVGYAMGWYRQAPGKERELVAAITFRGGSTYYADSVKGRFTISRDNAKNTVYLQMNSLKPEDTAVYYCNRVVRLRRPAQYNYWGQGTQVTVSS”, the “polyreactivity (PSR sort gate)” value is given as “high polyreactivity”.

Turning to “QVQLVESGGGLVQAGGSLRLSCAASGSIFVGYAMGWYRQAPGKEREVVAAISSSGTSTYYADSVKGRFTISRDNAKNTVYLQMNSLKPEDTAVYYCNARWYVPAYEFDYWGHGTQVTVSS”, the “polyreactivity (PSR sort gate)” value was “low polyreactivity”.

Regarding “QVQLVESGGGLVQAGGSLRLSCAASGSIFVGYAMGWYRQAPWKERELVAAISKRGGGTYYADSVKGRFTISRDNAKNTVYLHMNSLKPEDTAVYYCNAVPVHLDVASGYYYWGQGTQVTVSS”, the “polyreactivity (PSR sort gate)” value is on record as “high polyreactivity”.

Turning to “QVQLVESGGGLVQAGGSLRLSCAASGSIFVHYAMGWYRQAPGKERELVAAISRSGGSTYYADSVKGRFTISRDNAKNTFYLQMNSLKPEDTAVYYCAADSGYLSPYDYWGHGTQVTVSS”, the “polyreactivity (PSR sort gate)” value is “low polyreactivity”.

As for “QVQLVESGGGLVQAGGSLRLSCAASGSIFVINAMGWYRQAPGKERELVAAISYSGTGTYYADSVKGRFTISRDNAKNTVYLQMNSLKPEDTAVYYCAADYYYRYRIYDYWGQGTQVTVSS”, the “polyreactivity (PSR sort gate)” value is “low polyreactivity”.

For the sequence “QVQLVESGGGLVQAGGSLRLSCAASGSIFVKNAMGWYRQAPGKERELVARITYSGGSTYYADSVKGRFTISRDNAKNTVYLQMNSLKPEDTADYYCDTDGNLRTAGYAYDHYYWGQGTQVTVSS”, the “polyreactivity (PSR sort gate)” value is recorded as “high polyreactivity”.

As to “QVQLVESGGGLVQAGGSLRLSCAASGSIFVKNAMGWYRQAPGKERELVAVITIRTATTYYADSVKGRFTISRDNAKNTVYLQMNSLKPEDTAVYYCAAAKRQRGYLQREGNYWGQGTQVTVSS”, the “polyreactivity (PSR sort gate)” value is given as “low polyreactivity”.

Consider “QVQLVESGGGLVQAGGSLRLSCAASGSIFVKYAMGWYRQAPGTERELVAAISGSGGSTYYADSVKGRFTISRDNAKNTVYLQMNSLKPEDTAVYYCAADDYFYSGRYGFEYWGQGTQVTVSS”, for which the “polyreactivity (PSR sort gate)” value is listed as “low polyreactivity”.

“QVQLVESGGGLVQAGGSLRLSCAASGSIFVLNAMGWYRQAPGKERELVAAISSADSTTYADSVKGRFTISRDNAKNSVYLQMNSLKPEDTAVYYCAADWWYVLIFDYWGQGTQVTVSS”: the “polyreactivity (PSR sort gate)” value is “low polyreactivity”.

For “QVQLVESGGGLVQAGGSLRLSCAASGSIFVLNAMGWYRQAPGKERELVATITWRGGSTYYADSVKGRFTISRDNAKNTVYLQMNSLKPEDTAVYYCAKVDIRHHRFYYWGHGTQVTVSS”, the “polyreactivity (PSR sort gate)” value was “low polyreactivity”.

As for “QVQLVESGGGLVQAGGSLRLSCAASGSIFVLYAMGWYRQAPGKERELVAAINYDGASTYYADSVKGRFTISRDNAKNTVYLQMNSLKPEDTAVYYCAARWQFNIDVQLYLFEYWGQGTEVTVSS”, the “polyreactivity (PSR sort gate)” value is on record as “low polyreactivity”.

As to “QVQLVESGGGLVQAGGSLRLSCAASGSIFVLYAMGWYRQAPGKERELVAAITASGGSTHYADSVKGRFTISRDNAKNTVYLQMNSLKPEDTAVYYCNADVYTEYDYWGQGTQVTVSS”, the “polyreactivity (PSR sort gate)” value was “low polyreactivity”.

In the case of “QVQLVESGGGLVQAGGSLRLSCAASGSIFVLYAMGWYRQAPGKERELVATITWSGDSTYYADSVKGRFTISRDNAKNTVYLQMNSLKPEDTAVYYCNKRIWDQYDWGQGTQVTVSS”, the “polyreactivity (PSR sort gate)” value is given as “low polyreactivity”.

For the sequence “QVQLVESGGGLVQAGGSLRLSCAASGSIFVLYTIGWYRQAPGKERELVGAISYSGGSTNYADSVKGRFTISRDNAKNTVYLQMNSLKPEDTSVYYCADRASKGHKYWGQGTQVTVSS”, the “polyreactivity (PSR sort gate)” value was “high polyreactivity”.

With “QVQLVESGGGLVQAGGSLRLSCAASGSIFVLYTMGWYRQAPGKERELVAAISYSGGSTNYADSVKGRFTISRDNAKNTVYLQMNSLKPEDTAVYYCAARASKGHKYWGQGTQVTVSS”, the “polyreactivity (PSR sort gate)” value is given as “high polyreactivity”.

As to “QVQLVESGGGLVQAGGSLRLSCAASGSIFVNYAMGWYSQAPGTERELVAAISWRGGITYGVSVKGRFTISRDNAKNTVYLQMNSLKPEDTADYYSNTDGDDFFHVIYDYWAQGTQVTVSS”, the “polyreactivity (PSR sort gate)” value is given as “low polyreactivity”.

“QVQLVESGGGLVQAGGSLRLSCAASGSIFVPYAMGWYRQAPGKERELVAAISSGGSTNYADSVKGRFTISRDNAKNTVYLQMNSLKPEDTAVYYCNADYSVYIIADEYDYWGQGTQVTVSS”: the “polyreactivity (PSR sort gate)” value is “low polyreactivity”.

As for “QVQLVESGGGLVQAGGSLRLSCAASGSIFVPYAMGWYRQAPGKERELVASINWNGSSTYADSVKGRFTISRDNAKNSVYLQMNSLKPEDTAVYYCNADYNRNSVQFSLYDYWGQGTQVTVST”, the “polyreactivity (PSR sort gate)” value was “low polyreactivity”.

For “QVQLVESGGGLVQAGGSLRLSCAASGSIFVPYAMGWYRQAPGKERELVAVITSGGSTYYADSVKGRFTISRDNAKNTVFLQMNSLKPEDTAVYYCAVDGGEFSSYGYWGQGTQVTVSS”, the “polyreactivity (PSR sort gate)” value was “low polyreactivity”.

“QVQLVESGGGLVQAGGSLRLSCAASGSIFVPYTMGWYRQAPGKERELVASISYSGGTTYYADSVKGRFTISRDNAKNTVYLQMNSLKPEDTAVYYCAAQTLDGYDYWGQGTQVTVSS”: the “polyreactivity (PSR sort gate)” value is “low polyreactivity”.

On to “QVQLVESGGGLVQAGGSLRLSCAASGSIFVQYAMGWYRQAPGKERELVATISSSGGSTYYADSVKGRFTISRDNAKNTVYLQMNSLKPEDTAVYYCAADWTLDPSYGYYADDYWGQGTQVTVST”, for which the “polyreactivity (PSR sort gate)” value was “low polyreactivity”.

For the sequence “QVQLVESGGGLVQAGGSLRLSCAASGSIFVRNAMGWYRQAPGKEREFVATITSSGGTTYYADSVKGRFTISRDNAKNTVYLQMNSLKPDDTAVYYCNADAGWYDWVYYVGRDYWGQGTQVTVSS”, the “polyreactivity (PSR sort gate)” value is on record as “low polyreactivity”.

“QVQLVESGGGLVQAGGSLRLSCAASGSIFVRNAMGWYRQAPGKERELVAAITARGGSTYYADSVKGRFTISRDNAKNTVYLLMHSLKPEDTAVYYCARSYYYRGWAQWRYDYWGQGTQVTVSS”: the “polyreactivity (PSR sort gate)” value is “high polyreactivity”.

For the sequence “QVQLVESGGGLVQAGGSLRLSCAASGSIFVRNGMGWYRQAPGKERELVASITSGTITYYADSVKGRFTISRDNAKNTVYLQMNSLKPEDTAVYYCNAGWRSSRMEYWGQGTQVTVSS”, the “polyreactivity (PSR sort gate)” value was “high polyreactivity”.

For the sequence “QVQLVESGGGLVQAGGSLRLSCAASGSIFVRNVMGWYRQAPGKERELVAGISWNGGSTFNADSVKGRFTISRDNAKNTVYLQMNSLKQEDTAVYYCAARGRHSGYYSFPYYYWGQGTQVTVSS”, the “polyreactivity (PSR sort gate)” value is “low polyreactivity”.

On to “QVQLVESGGGLVQAGGSLRLSCAASGSIFVRNVMGWYRQPPGKERELVATIRYRGGSTYYADSVKGRFTISRDYAKNTVYLQMNSLKPEDTAVYYCNARYLWADEYYYWGQGTQVTVSS”, for which the “polyreactivity (PSR sort gate)” value is reported as “low polyreactivity”.

Regarding “QVQLVESGGGLVQAGGSLRLSCAASGSIFVRYAMGWYRQAPGKERELVAAISSGGRTYYADSVKGRFTISRDNAKYTVYLQMNSLKPEDTAVYYCNAVKRVPSLGPYDYWGQGTQVTVSS”, the “polyreactivity (PSR sort gate)” value is recorded as “high polyreactivity”.

“QVQLVESGGGLVQAGGSLRLSCAASGSIFVRYAMGWYRQAPGKERELVASIRSRGDSTYYADSVKGRFTISRDNAKNTVYLQMNSLKPEDTAVYYCAARRYPPRMDYWGQGTQVTVSS”: the “polyreactivity (PSR sort gate)” value is “high polyreactivity”.
